One may read the Kd as the free concentration of one partner at which half of the binding sites on the other are occupied at equilibrium, for simple one-to-one binding. Broadly, the koff is the first-order rate constant of dissociation. In general, kon refers to the rate constant with which the complex forms. As a reminder, the EC50 is the concentration at which the effect is half-maximal. A low value points to a more potent agent. One may read the IC50 as the concentration at which inhibition is half-maximal.

Residue numbers refer to the chain shown, from its start. Where two headings read alike, the source gives them in different places.

The values below come from patent US20250313626A1 (HARBOUR BIOMED SHANGHAI, published 2025).

For test [1], the target named is T1, CD200R1a on PathHunter Jurkat CD200R1a signaling cells (Eurofins DiscoverX, 93-1136C19) (human, UniProt Q8TD46 25-348).
T1 sequence: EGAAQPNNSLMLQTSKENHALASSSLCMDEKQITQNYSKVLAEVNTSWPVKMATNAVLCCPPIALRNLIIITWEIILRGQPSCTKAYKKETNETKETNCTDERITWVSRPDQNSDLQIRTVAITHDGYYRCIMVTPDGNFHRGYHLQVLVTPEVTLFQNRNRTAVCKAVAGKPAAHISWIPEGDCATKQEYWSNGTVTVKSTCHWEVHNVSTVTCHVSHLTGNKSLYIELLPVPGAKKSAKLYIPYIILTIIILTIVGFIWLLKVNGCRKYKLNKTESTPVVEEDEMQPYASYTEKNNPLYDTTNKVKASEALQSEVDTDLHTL
Put plainly: cell-based or functional assay.

The target of a further test is T2, Mouse CD200R1-His (mouse, UniProt Q9ES57 26-238, limits assumed).
T2 sequence (looked up): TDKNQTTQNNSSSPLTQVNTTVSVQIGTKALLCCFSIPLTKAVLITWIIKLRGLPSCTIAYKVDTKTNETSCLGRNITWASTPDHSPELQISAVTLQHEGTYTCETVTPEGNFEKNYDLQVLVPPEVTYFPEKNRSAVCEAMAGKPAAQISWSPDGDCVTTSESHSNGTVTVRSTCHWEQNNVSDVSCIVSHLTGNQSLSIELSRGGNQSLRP
Nature of the test: BLI (Octet), antibody captured on anti-human Fc sensor. The protocol: (§1) To determine the binding affinities of the anti-CD200R1 antibodies to CD200R1a proteins of various species (mouse, human, Cynomolgus macaques), bio-layer interferometry (BLI) assays were carried out using an Octet® RED96e instrument. Antibodies were produced as described in Example 3.4 and diluted to 5 μg/mL using freshly prepared 1× kinetic buffer (10× kinetic buffer (Catalog #18-1105, ForteBio) was diluted with PBS(Catalog #E607016-0500, BBI Life Sciences)) and were captured on the surface of anti-human Fc (AHC) Octet biosensors (Catalog #18-5060, ForteBio) to reach capture levels between 0.9-1.2 nm. The biosensors having the captured anti-CD200R1 antibodies were then dipped in wells containing 2-fold serial dilutions of CD200R1a proteins to detect association signals, followed by dissociation steps in wells containing 1× kinetic buffer. The sensorgrams were recorded and the reference signals were subtracted before curve fitting using ForteBio Data Analysis 11.0 software. Association rates (kₒₙ) and dissociation rates (koff) were calculated using a simple one-to-one Langmuir binding model. The equilibrium dissociation constant (KD) was calculated as the ratio of koff/kₒₙ.
A general note: Biolayer interferometry detects binding as a change in optical thickness at a sensor tip.

For test [2], the target named is T3, human CD200R1a protein (soluble recombinant) (human, UniProt Q8TD46 29-265).
T3 construct: Soluble protein used in BLI; also called human CD200R1 isoform a; not shown: His tag implied by capture on anti-Penta-HIS biosensors
T3 sequence: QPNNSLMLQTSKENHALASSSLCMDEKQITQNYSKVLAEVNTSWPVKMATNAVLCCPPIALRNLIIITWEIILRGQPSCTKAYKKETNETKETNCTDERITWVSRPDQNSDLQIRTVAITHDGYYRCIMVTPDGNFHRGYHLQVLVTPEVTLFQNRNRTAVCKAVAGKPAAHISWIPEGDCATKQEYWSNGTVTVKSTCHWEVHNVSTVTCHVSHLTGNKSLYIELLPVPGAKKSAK
Put plainly: BLI (Octet), antibody captured on anti-human Fc sensor, soluble CD200R1a as analyte, 1:1 fit. The protocol:
as §1

For test [3], the target named is T4, human CD200R1 isoform a on CHOK1 cells (CHOK1/hCD200R1a) (human, UniProt Q8TD46 25-348).
T4 construct: also called CHOK1/CD200R1a
T4 sequence: T1 sequence
Nature of the test: flow cytometry, CHOK1/hCD200R1a cells; table beside the curves, head without unit, x axis Log [Ab] (nM). The protocol: (§2) This example is intended to investigate the in vitro binding activity of human anti-CD200R1 monoclonal antibodies to human/Cynomolgus macaques CD200R1a expressed on the surface of cells. The anti-CD200R1 antibodies were produced as described in Example 3.4 and the binding experiments at the cell level were performed using CHOK1/hCD200R1a and CHOK1-cynoCD200R1a.
(§3) Briefly, CHOK1/hCD200R1a cells and CHOK1-cynoCD200R1a cells were digested, and collected, and then were resuspended in PBS containing 2% BSA, respectively. The cell density was adjusted to 1×10⁶ cells/mL. The cells were seeded in a 96-well V-bottom plate (Corning, #3894) at 100 μL/well, followed by the addition of test antibodies and reference antibodies in a series diluted concentration, each at 100 μL/well. The cells were incubated away from light at 4° C. for 1 h. Thereafter, the cells in each well were rinsed twice with 100 μL of pre-cooled PBS containing 2% BSA, and centrifuged at 500 g at 4° C. for 5 min, and then the supernatant was discarded. 100 μL of fluorescent secondary antibody (Alexa Fluor 488-conjugated AffiniPure Goat Anti-Human IgG, Fcγ Fragment Specific, Jackson, #109-545-098, diluted in a 1:1000 ratio) was added in each well, and the plate was incubated away from light at 4° C. for 1 h. The cells in each well were rinsed twice with 100 μL of pre-cooled PBS containing 2% BSA, and centrifuged at 500 g at 4° C. for 5 min, and then the supernatant was discarded. Finally, the cells in each well were resuspended in 200 μL of pre-cooled PBS containing 2% BSA, and the fluorescence signal values were read using a BD CantoII flow cytometer.

The target of test [4] is T4, human CD200R1 isoform a on CHOK1 cells …. Nature of the test: flow cytometry blocking assay: antibody titrated against biotin-labelled human CD200 binding to CHOK1/hCD200R1a cells. The protocol: To study the activity of human anti-CD200R1 antibodies in blocking the binding of human CD200 to its receptor CD200R1a in vitro, CHOK1/hCD200R1a was used to perform cell-level human CD200/human CD200R1a binding and blocking experiments.
(§4) In brief, CHOK1/hCD200R1a cells were digested and resuspended in 2% BSA in PBS. […] The cells were placed at 4° C. and incubated for 1 hour in the dark. […] 100 μL/well of pre-cooled PBS containing 2% BSA was added to rinse the cells twice, centrifugation was performed at 500 g, 4° C. for 5 minutes, and the supernatant was discarded. Fluorescent secondary antibody (PE Streptavidin, BD, Cat #: 554061, 1:200) was added at 100 μL/well, and incubation was performed at 4° C. for 30 minutes in the dark. The cells were washed twice with 200 μL/well of pre-cooled PBS, and were centrifuged at 500 g, 4° C. for 5 minutes, and the supernatant was discarded. Finally, 200 μL/well of pre-cooled PBS was used to resuspend the cells, and the fluorescence signal values were read using ACEA Novocyte 3000 flow cytometer. IC50 values were calculated.
(In general: Flow cytometry measures light scatter and fluorescence of single cells or particles in a stream.)

In test [5] the target is T1, CD200R1a on PathHunter Jurkat CD200R1a …. Put plainly: cell-based or functional assay. This is another data set of the same source.
The target of test [6] is T4, human CD200R1 isoform a on CHOK1 cells …. Nature of the test: flow cytometry, CHOK1/hCD200R1a cells (FITC-Mean); table beside the curves. The protocol:
as §2, §3

The target in test [7] is T5, Cynomolgus macaques CD200R1 isoform a on CHOK1 cells (CHOK1/cynoCD200R1a) (Cynomolgus macaques).
T5 chain: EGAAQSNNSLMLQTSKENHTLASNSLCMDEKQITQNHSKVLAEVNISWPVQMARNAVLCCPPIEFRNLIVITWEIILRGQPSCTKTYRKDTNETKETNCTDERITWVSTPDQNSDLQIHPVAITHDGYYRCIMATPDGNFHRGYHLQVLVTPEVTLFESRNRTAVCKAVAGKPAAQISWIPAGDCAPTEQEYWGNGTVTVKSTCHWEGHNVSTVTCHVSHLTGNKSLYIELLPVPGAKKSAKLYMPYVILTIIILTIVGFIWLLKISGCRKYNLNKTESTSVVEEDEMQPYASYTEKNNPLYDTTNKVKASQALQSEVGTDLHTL
Nature of the test: flow cytometry, CHOK1/cynoCD200R1a cells (APC-A Mean); table beside the curves.

In test [8] the target is T4, human CD200R1 isoform a on CHOK1 cells …. Put plainly: flow cytometry blocking assay: biotin-labelled human CD200 binding to CHOK1/hCD200R1a cells; y axis Inhibition %. The protocol:
as §4

Test [9] has the same target. Nature of the test: flow cytometry, CHOK1/hCD200R1a cells (FITC-Mean); table beside the curves, head without unit, x axis Log [Ab] (nM).
Test [10] has the same target. Nature of the test: flow cytometry blocking assay: antibody titrated against biotin-labelled human CD200 binding to CHOK1/hCD200R1a cells; head prints EC50 without unit, x axis Log [Ab] (nM), y axis Inhibition %. The protocol:
as §4

In test [11] the target is T1, CD200R1a on PathHunter Jurkat CD200R1a …. Put plainly: cell-based or functional assay. This is another data set of the same source.

B1: PR006475 (antibody, human IgG1, kappa, L234A L235A, V domains shown)
VH: QVQLQESGPGLVKPSGTLSLTCAVSGASISSGHWWSWVRQPPGKGLEWIGEIYHSGSTNYTPSLKSRVTISVDKSKNQFSLKLTSVTAADTAVYYCAREASYHYGSGSYYTPFDFWGQGTLVTVSS
VL: EIVLTQSPATLSVSPGERATLSCRASQSVSSNLAWYQQKPGQAPRLLIYGASTRATGIPARFSGSGSGTEFTLTISSLQSEDFALYYCQQYNNWIIFGQGTRLEIKR
B1: the “IC50 of the inhibition of CD200-induced PathHunter Jurkat CD200R1a luminescence (CHOK1/hCD200 cells as CD200 source); head without unit, x axis Log [Ab] (nM)” value in test [1] was found to be 10.6 nM. Besides, the binding result with Mouse CD200R1-His was “no binding”. In [2], the Kd is 12.8 nM, the koff was found to be 0.000376 s⁻¹ and the kon was 29400 M⁻¹ s⁻¹. Also, the EC50 in test [3] worked out at 6.97 nM. Further, in [4], the “Blocking (Max %)” value is 110% and the IC50 turned out to be 32.2 nM.

B2: PR007630 (antibody, human IgG1, kappa, V domains shown)
VH: QVQLVESGGGVVQPGRSLRLSCAASGFTFSSYGFHWVRQAPGKGLEWLGIIWSDASNKYYADSVKGRFTISRDNSKNTLYLQMNSLRAEDTAVYYCARDRIVGEGFDYWGQGTLVTVSS
VL: DIVMTQSPLSLPVTPGEPASISCRSSQSLLHRSGYNYLDWYLQKPGQSPQLLIYLGSYRASGVPDRFSGSGSGTDFTLKISRVEAEDVGVYYCMQGLQTMYTFGQGTKLEIKR
notes: PTM variant of PR006839 (human IgG1)
On to B2, for which, in [5], the “IC50 of the inhibition of CD200-induced PathHunter Jurkat CD200R1a luminescence (CHOK1/hCD200 cells as CD200 source)” value came to 0.46 nM. Also, the “MFI(Max)” value in test [6] came out at 18900. The EC50 in [7] was 4.69 nM; in test [9], 0.313 nM; in test [10] it was 0.359 nM. Also, the “MFI (MAX)” value in test [7] is 58600. Besides, the “Blocking(Max)” value in test [8] stood at 99.9%.

B3: PR007631 (antibody, human IgG1, kappa, V domains shown)
VH: B2 VH with I50L, S56R, N57H, Y59D
VL: B2 VL with A60W
notes: as for B2
Consider B3, for which, in [5], the “IC50 of the inhibition of CD200-induced PathHunter Jurkat CD200R1a luminescence (CHOK1/hCD200 cells as CD200 source)” value came out at 0.266 nM. For the same molecule, the “MFI(Max)” value in test [6] was 19400. Besides, the EC50 in [7] amounted to 3.63 nM; in test [9] it was 0.311 nM; in [10], 0.323 nM. In addition, the “MFI (MAX)” value in [7] amounted to 51800. The “Blocking(Max)” value in test [8] is 99.9%.

B4: PR007972 (antibody, human IgG1, kappa, V domains shown)
VH: B2 VH with S31Y
VL: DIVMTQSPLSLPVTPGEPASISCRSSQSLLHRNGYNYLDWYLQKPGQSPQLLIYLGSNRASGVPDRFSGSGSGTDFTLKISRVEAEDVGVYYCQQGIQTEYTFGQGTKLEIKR
notes: as for B2
Regarding B4, in [11], the “IC50 of the inhibition of CD200-induced PathHunter Jurkat CD200R1a luminescence (CHOK1/hCD200 cells as CD200 source)” value was 0.368 nM. Besides, the “MFI(Max)” value in test [6] amounted to 19000. Also, the EC50 was determined as 4.48 nM in test [7], 0.19 nM in test [9] and 0.158 nM in [10]. In addition, the “MFI (MAX)” value in test [7] was found to be 51200. Moreover, the “Blocking(Max)” value in test [8] came out at 99.9%.
